Literature values as cited in PMC3430373.
pKd: −log10 of the molar value.

Target: S10:NusB complex (Escherichia coli) (UniProt C4ZUH6)
Experiment: NMR

## NusG CTD (from UniProt P0AFG0)
  pKd: 4.30
